From patent US20190375821A1 (IBENTRUS, published 2019)

Assays:
NRP1 = target: T1, NRP1 (UniProt O14786-2 22-644, limits assumed); assay: ELISA, VEGF165
T1 construct: Control 'natural receptor'; also called neuropilin-1; neuropilin 1

NRP2 = target: T2, NRP2 (UniProt O60462 23-864, limits assumed); assay: ELISA, VEGF165
T2 construct: Control 'natural receptor'
T2 sequence (O60462 23-864 limits assumed): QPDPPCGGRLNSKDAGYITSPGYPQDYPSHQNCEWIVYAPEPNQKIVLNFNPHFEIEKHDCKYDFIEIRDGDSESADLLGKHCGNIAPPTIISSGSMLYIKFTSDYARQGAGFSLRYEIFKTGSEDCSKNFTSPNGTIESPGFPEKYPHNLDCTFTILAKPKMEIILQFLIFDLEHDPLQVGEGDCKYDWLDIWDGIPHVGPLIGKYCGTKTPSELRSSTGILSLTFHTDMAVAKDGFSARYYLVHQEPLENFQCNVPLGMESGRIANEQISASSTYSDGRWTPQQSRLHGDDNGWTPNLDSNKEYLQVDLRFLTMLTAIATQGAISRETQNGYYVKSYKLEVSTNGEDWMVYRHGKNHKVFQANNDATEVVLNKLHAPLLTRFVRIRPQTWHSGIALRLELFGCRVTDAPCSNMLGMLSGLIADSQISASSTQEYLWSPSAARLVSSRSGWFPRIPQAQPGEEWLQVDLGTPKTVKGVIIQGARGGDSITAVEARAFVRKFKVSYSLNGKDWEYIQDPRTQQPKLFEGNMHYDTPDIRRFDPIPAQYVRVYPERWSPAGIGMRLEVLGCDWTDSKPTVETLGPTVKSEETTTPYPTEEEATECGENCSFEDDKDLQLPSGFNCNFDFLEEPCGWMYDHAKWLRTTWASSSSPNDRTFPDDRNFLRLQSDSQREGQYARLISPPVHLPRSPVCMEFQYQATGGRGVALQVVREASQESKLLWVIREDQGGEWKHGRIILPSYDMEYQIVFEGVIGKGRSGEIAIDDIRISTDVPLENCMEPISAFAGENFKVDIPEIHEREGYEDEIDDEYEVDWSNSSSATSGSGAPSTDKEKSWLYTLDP

- Kd (NRP1): 0.312 nM
- Kd (NRP2): 8 nM
B1: VEGF165 (ligand, UniProt P15692-4 27-191, looked up)
chain: APMAEGGGQNHHEVVKFMDVYQRSYCHPIETLVDIFQEYPDEIEYIFKPSCVPLMRCGGCCNDEGLECVPTEESNITMQIMRIKPHQGQHIGEMSFLQHNKCECRPKKDRARQENPCGPCSERRKHLFVQDPQTCKCSCKNTDSRCKARQLELNERTCRCDKPRR
notes: also called VEGFA
